# Data from patent US20170298096A1 (CANIMGUIDE THERAPEUTICS, published 2017).
# Experiments:
# [1] = molecular target: T1, His-tagged P3028 peptide (PGE73) (human); assay: PEPSCAN ELISA; peptide on card, His-tagged P3028 in solution;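 further: bound protein detected by peroxidase colour with ABTS substrate, imaged on the peptide card by CCD camera at 405 nm, rampo units being raw OD405 readings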
# T1 construct: also called His-tag-P3028; not shown: His-tag
# T1 peptide: VFDEFKPLVEEPQNLIK
# [2] = molecular target: T2, His-tagged P3028 peptide (PGE73) (human); assay: PEPSCAN ELISA, peptide on card
# T2 construct: albumin-derived peptide, in solution at 0.5 ug/mL; not shown: His-tag
# T2 peptide: VFDEFKPLVEEPQNLIK
Binder,RAMPO Score [1],RAMPO Score [2]
KKLDTFFVKLSLFTEP (P28R variant on PEPSCAN card) [SEQ ID NO: 533],234 rampo units,
KKLDTFFVKLSLFTEW (P28R variant on PEPSCAN card) [SEQ ID NO: 551],202 rampo units,
KKLDTFFVKLSLFTEI (P28R variant on PEPSCAN card) [SEQ ID NO: 558],176 rampo units,
KKLDTFFVKLSLFTEG (P28R variant on PEPSCAN card) [SEQ ID NO: 543],218 rampo units,
KKLDTFFVKMSLFTER [SEQ ID NO: 336 KKLDTFFVKMSLFTER],,460
KKLDTFFVKLSIFTER [SEQ ID NO: 352 KKLDTFFVKLSIFTER],,456
KKLDTFFVKTSLFTER [SEQ ID NO: 342 KKLDTFFVKTSLFTER],,399
KKLDTFFVKLSNFTER [SEQ ID NO: 354 KKLDTFFVKLSNFTER],,462
KKLDTFFVKLSLFHER [SEQ ID NO: 378 KKLDTFFVKLSLFHER],,463
KKLDTFFVKLSVFTER [SEQ ID NO: 359 KKLDTFFVKLSVFTER],,545
KKLDTFFVKLSLFTDR [SEQ ID NO: 387 KKLDTFFVKLSLFTDR],,404
KKLDTFFVKSSLFTER [SEQ ID NO: 341 KKLDTFFVKSSLFTER],,351
KKLDTFFVKLSMFTER [SEQ ID NO: 353 KKLDTFFVKLSMFTER],,499
KKLDTFFVKLSLPTER [SEQ ID NO: 369 KKLDTFFVKLSLPTER],,696
KKLDTFFVKLSLFFER [SEQ ID NO: 376 KKLDTFFVKLSLFFER],,348
KKLDTFFVKLSSFTER [SEQ ID NO: 357 KKLDTFFVKLSSFTER],,478
KKLDTFFVKPSLFTER [SEQ ID NO: 338 KKLDTFFVKPSLFTER],,436
KKLDTFFVKLSLRTER [SEQ ID NO: 371 KKLDTFFVKLSLRTER],,502
KKLDTFFVKLSRFTER [SEQ ID NO: 356 KKLDTFFVKLSRFTER],,483
KKLDTFFVKLSLLTER [SEQ ID NO: 366 KKLDTFFVKLSLLTER],,448
KKLDTFFVKLSLFNER [SEQ ID NO: 382 KKLDTFFVKLSLFNER],,599

Binder,RAMPO Score [1],RAMPO Score [2]
KKLDTFFVKLSLGTER [SEQ ID NO: 363 KKLDTFFVKLSLGTER],,531
KKLDTFFVKQSLFTER [SEQ ID NO: 339 KKLDTFFVKQSLFTER],,470
KKLDTFFVKLSLATER [SEQ ID NO: 361 KKLDTFFVKLSLATER],,525
KKLDTFFVKLSLFTEN [SEQ ID NO: 390 KKLDTFFVKLSLFTEN],,311
KKLDTFFVKLSWFTER [SEQ ID NO: 360 KKLDTFFVKLSWFTER],,409
KKLDTFFVKLSLFIER [SEQ ID NO: 379 KKLDTFFVKLSLFIER],,375
KKLDTFFVKNSLFTER [SEQ ID NO: 337 KKLDTFFVKNSLFTER],,365
KKLDTFFVKLSLHTER [SEQ ID NO: 364 KKLDTFFVKLSLHTER],,1050
KKLDTFFVKLSLFLER [SEQ ID NO: 380 KKLDTFFVKLSLFLER],,360
KKLDTFFVKLHLFTER [SEQ ID NO: 345 KKLDTFFVKLHLFTER],,535
KKLDTFFVKLTLFTER [SEQ ID NO: 349 KKLDTFFVKLTLFTER],,520
KKLDTFFVKLSLFMER [SEQ ID NO: 381 KKLDTFFVKLSLFMER],,501
KKLDTFFVKLQLFTER (also called 30678) [SEQ ID NO: 348 KKLDTFFVKLQLFTER],,768
KKLDTFFVKLSLFGER [SEQ ID NO: 377 KKLDTFFVKLSLFGER],,343
KKLDTFFVKLSAFTER [SEQ ID NO: 350 KKLDTFFVKLSAFTER],,462
KKLDTFFVKLSLQTER [SEQ ID NO: 370 KKLDTFFVKLSLQTER],,1140
KKLDTFFVKLSTFTER [SEQ ID NO: 358 KKLDTFFVKLSTFTER],,437
KKLDTFFVKLSLFTEY [SEQ ID NO: 393 KKLDTFFVKLSLFTEY],,311
KKLDTFFVKLSLWTER [SEQ ID NO: 375 KKLDTFFVKLSLWTER],,430
KKLDTFFVKLSLCTER [SEQ ID NO: 362 KKLDTFFVKLSLCTER],,400
KKLDTFFVKYSLFTER [SEQ ID NO: 344 KKLDTFFVKYSLFTER],,382

# Continued, values first:
RAMPO Score [1],RAMPO Score [2],Binder
226 rampo units,,KKLDTFFVKLSLFTEA (P28R variant on PEPSCAN card) [SEQ ID NO: 538]
184 rampo units,,KKLDTFFVKLSLFTES (P28R variant on PEPSCAN card) [SEQ ID NO: 557]
217 rampo units,,KKLDTFFVKLSLFTEL (P28R variant on PEPSCAN card) [SEQ ID NO: 544]
,291,KKLDTFFVKLSLFTEK [SEQ ID NO: 389 KKLDTFFVKLSLFTEK]
,380,KKLDTFFVKLSLFVER [SEQ ID NO: 385 KKLDTFFVKLSLFVER]
,451,KKLDTFFVKLNLFTER [SEQ ID NO: 347 KKLDTFFVKLNLFTER]
,374,KKLDTFFVKLSLFWER [SEQ ID NO: 386 KKLDTFFVKLSLFWER]
,494,KKLDTFFVKLSLTTER [SEQ ID NO: 373 KKLDTFFVKLSLTTER]
,551,KKLDTFFVKLSLFPER [SEQ ID NO: 383 KKLDTFFVKLSLFPER]
,862,KKLDTFFVKLSLNTER [SEQ ID NO: 368 KKLDTFFVKLSLNTER]
,468,KKLDTFFVKLSLITER [SEQ ID NO: 365 KKLDTFFVKLSLITER]
,658,KKLDTFFVKVSLFTER [SEQ ID NO: 343 KKLDTFFVKVSLFTER]
,635,KKLDTFFVKLSLSTER [SEQ ID NO: 372 KKLDTFFVKLSLSTER]
,446,KKLDTFFVKLSLVTER [SEQ ID NO: 374 KKLDTFFVKLSLVTER]
,744,KKLDTFFVKLMLFTER [SEQ ID NO: 346 KKLDTFFVKLMLFTER]
,297,KKLDTFFVKLSLFTEF [SEQ ID NO: 388 KKLDTFFVKLSLFTEF]
,369,KKLDTFFVKLSLFSER [SEQ ID NO: 384 KKLDTFFVKLSLFSER]
,1190,KKLDTFFVKLSLMTER (also called 30677) [SEQ ID NO: 367 KKLDTFFVKLSLMTER]
,651,KKLDTFFVKLSQFTER [SEQ ID NO: 355 KKLDTFFVKLSQFTER]
,439,KKLDTFFVKRSLFTER [SEQ ID NO: 340 KKLDTFFVKRSLFTER]
,292,KKLDTFFVKLSLFTET [SEQ ID NO: 392 KKLDTFFVKLSLFTET]
,460,KKLDTFFVKLSHFTER [SEQ ID NO: 351 KKLDTFFVKLSHFTER]
